Reference: patent publication US20170114104A1
Residue numbers refer to the chain shown, from its start. Values belong to the binder of their own block, whether it stands above or below them.

Target: Biotin-AP (biotinylated AP-peptide with a fluorescent dye)
Assay: native-PAGE off-rate under excess biotin, 37 °C

koff: 5.1e-05 s⁻¹
B1: Monodin (MA) (designed binder)
chain: FDASNFKDFSSIASASSSWQNQHGSTMIIQVDSFGNVSGQYVNRAEGTGCQNSPYPLTGRVNGTFIDFSVKWNNSTENCNSNTQWTGYAQVNGNNTEIVTRWNLKYEGGSGPAIWQGQDTFQYVPTTE

koff: 4.9e-05 s⁻¹
B2: Rhizavidin (RA) (protein)
chain: B1 chain with H23S, E46Q, D67A, K71G, N82A, Q84G, R101S, K105A, W115E
